Earlier results as cited in patent US10190113B2, “Methods and compositions for segregating target nucleic acid from mixed nucleic acid samples” (FLIR DETECTION, INC., priority 2011, dated 2019).
Changes are numbered by the printed parent chain. In names and notes the source's numbering stands.

B1: BamHI T114I: BamHI restriction enzyme with mutation T114I (protein, UniProt P23940 1-213, looked up, variant T114I)
Type II restriction enzyme …: MEVEKEFITDEAKELLSKDKLIQQAYNEVKTSICSPIWPATSKTFTINNTEKNCNGVVPIKELCYTLLEDTYNWYREKPLDILKLEKKKGGPIDVYKEFIENSELKRVGMEFEIGNISSAHRSMNKLLLGLKHGEIDLAIILMPIKQLAYYLTDRVTNFEELEPYFELTEGQPFIFIGFNAEAYNSNVPLIPKGSDGMSKRSIKKWKDKVENK
B2: BamHI G194D: BamHI restriction enzyme with mutation G194D (protein, UniProt P23940 1-213, looked up, variant G194D)
Type II restriction enzyme …: B1 Type II restriction enzyme … with I114T, G194D
B3: BamHI T157I: BamHI restriction enzyme with mutation T157I (protein, UniProt P23940 1-213, looked up, variant T157I)
Type II restriction enzyme …: B1 Type II restriction enzyme … with I114T, T157I
B4: BamHI E135K: BamHI restriction enzyme with mutation E135K (protein, UniProt P23940 1-213, looked up, variant E135K)
Type II restriction enzyme …: B1 Type II restriction enzyme … with I114T, E135K
B5: BamHI D94N: BamHI restriction enzyme with mutation D94N (protein, UniProt P23940 1-213, looked up, variant D94N)
Type II restriction enzyme …: B1 Type II restriction enzyme … with D94N, I114T
B6: BamHI G56S: BamHI restriction enzyme with mutation G56S (protein, UniProt P23940 1-213, looked up, variant G56S)
Type II restriction enzyme …: B1 Type II restriction enzyme … with G56S, I114T
B7: BamHI G130R: BamHI restriction enzyme with mutation G130R (protein, UniProt P23940 1-213, looked up, variant G130R)
Type II restriction enzyme …: B1 Type II restriction enzyme … with I114T, G130R
B8: BsoBI I95M: BsoBI restriction enzyme with mutation I95M (protein, UniProt P70985 2-323, looked up, variant I95M)
Type II restriction enzyme …: NTQKPFENHLKSVDDLKTTYEEYRAGFIAFALEKNKRSTPYIERARALKVAASVAKTPKDLLYLEDIQDALLYASGISDKAKKFLTEDDKKESMNNLIENFLEPAGEEFIDELIFRYLLFQGDSLGGTMRNIAGALAQQKLTRAIISALDIANIPYKWLDSRDKKYTNWMDKPEDDYELETFAKGISWTINGKHRTLMYNITVPLVKKNVDICLFNCEPEIYTPQKVHQQPEKYLLLGELKGGIDPAGADEHWKTANTALTRIRNKFSEKGLSPKTIFIGAAIEHSMAEEIWDQLQSGSLTNSANLTKTEQVGSLCRWIINI
B9: BsoBI G123R: BsoBI restriction enzyme with mutation G123R (protein, UniProt P70985 2-323, looked up, variant G123R)
Type II restriction enzyme …: B8 Type II restriction enzyme … with M94I, G122R
B10: BsoBI K209R: BsoBI restriction enzyme with mutation K209R (protein, UniProt P70985 2-323, looked up, variant K209R)
Type II restriction enzyme …: B8 Type II restriction enzyme … with M94I, K208R
B11: BsoBI D124Y: BsoBI restriction enzyme with mutation D124Y (protein, UniProt P70985 2-323, looked up, variant D124Y)
Type II restriction enzyme …: B8 Type II restriction enzyme … with M94I, D123Y
B12: BsoBI D212N: BsoBI restriction enzyme with mutation D212N (protein, UniProt P70985 2-323, looked up, variant D212N)
Type II restriction enzyme …: B8 Type II restriction enzyme … with M94I, D211N
B13: EcoRV D74N: EcoRV restriction enzyme with mutation D74N (protein, UniProt P04390 2-245, looked up, variant D74N)
Type II restriction enzyme …: SLRSDLINALYDENQKYDVCGIISAEGKIYPLGSDTKVLSTIFELFSRPIINKIAEKHGYIVEEPKQQNHYPNFTLYKPSEPNKKIAIDIKTTYTNKENEKIKFTLGGYTSFIRNNTKNIVYPFDQYIAHWIIGYVYTRVATRKSSLKTYNINELNEIPKPYKGVKVFLQDKWVIAGDLAGSGNTTNIGSIHAHYKDFVEGKGIFDSEDEFLDYWRNYERTSQLRNDKYNNISEYRNWIYRGRK
B14: EcoRV K92E: EcoRV restriction enzyme with mutation K92E (protein, UniProt P04390 2-245, looked up, variant K92E)
Type II restriction enzyme …: B13 Type II restriction enzyme … with N73D, K91E
B15: EcoRV K92A: EcoRV restriction enzyme with mutation K92A (protein, UniProt P04390 2-245, looked up, variant K92A)
Type II restriction enzyme …: B13 Type II restriction enzyme … with N73D, K91A
B16: EcoRV D90T: EcoRV restriction enzyme with mutation D90T (protein, UniProt P04390 2-245, looked up, variant D90T)
Type II restriction enzyme …: B13 Type II restriction enzyme … with N73D, D89T
B17: EcoRV D90A: EcoRV restriction enzyme with mutation D90A (protein, UniProt P04390 2-245, looked up, variant D90A)
Type II restriction enzyme …: B13 Type II restriction enzyme … with N73D, D89A
B18: EcoRV K92Q: EcoRV restriction enzyme with mutation K92Q (protein, UniProt P04390 2-245, looked up, variant K92Q)
Type II restriction enzyme …: B13 Type II restriction enzyme … with N73D, K91Q

System: nucleic acid recognition or cleavage site
Conditions: mutant restriction enzyme relative to wild type; cited from earlier work

Molecule	% of WT cleavage activity [%]
B1	1
B2	1
B3	1
B4	1
B5	<0.1
B6	1
B7	0.1
B8	<0.1
B9	<0.1
B10	<0.1
B11	<0.1
B12	<0.1
B13	1.5
B14	<0.1
B15	<0.1
B16	0
B17	0
B18	0
